Molecular target: MET on NCI-H596 cells (MET exon14 skip mutation) (human) (UniProt P08581)
Assay: cell-based or functional assay

## hepatocyte growth factor (HGF) (from UniProt P14210 32-728) (ligand)
  Relative Cell Growth (n = 3), NCI-H596 in soft agar, 100 ng/mL, two weeks (relative to control (no treatment)): 7.88
